The text below walks through data of US20220396792, “METHOD FOR PRODUCING NUCLEIC ACID MOLECULE, BIOMATERIAL, AND METHOD FOR PRODUCING BIOMATERIAL” (NEC Solution Innovators, Ltd., published 2022).

Data set [1] addresses T1, VEGF165 (UniProt P15692-4 P15692-4:27-191). Kind of data set: SPR; 25 C, SB1T pH 7.4, 1 mM MgCl2, 0.01% Tween 20. Particulars: tags: PeproTech 100-20; chain copies: 2. As to the method:
(§1) First, as a sensor chip designed specifically for the ProteOn, a streptavidin-immobilized chip (trade name: ProteOn NLC Sensor Chip, BioRad) was set in the ProteOn XPR36. 5 μmol/L biotinylated poly(dT) was injected to a flow cell of the sensor chip using ultrapure water (DDW), and the binding was allowed to proceed until the signal intensity (RU: Resonance Unit) was saturated. The biotinylated poly(dT) was prepared by biotinylating the 5′ end of 20-mer deoxythymidine. Then, each of the poly(dA)-added aptamers (200 nmol/L) was injected to the flow cell of the chip using an SB1T buffer at a flow rate of 25 μL/min for 80 seconds, and the binding was allowed to proceed until the signal intensity was saturated. Subsequently, each of the samples (5 nmol/L) was injected using an SB1T buffer at a flow rate of 50 μL/min for 300 seconds, followed by washing performed by flowing the SB1T buffer under the same conditions. With the time at which the injection was started being 0 seconds, the signal intensity after the sample injection was measured. The SPR was carried out at 25° C.
The pH of the SB1T buffer was 7.4.

Data set [2] deals with VEGF receptor (KDR/VEGFR2) (UniProt P35968 P35968:20-764). The experiment in a line: SPR; 5 nM receptor alone, 25 C; receptor binds aptamer-bound VEGF165. The note with it: tags: R&D Systems 357-KD-050/CF; chain copies: 2. As to the method: The aptamers 1 to 5 were used as aptamers, and the VEGF sample and a VEGF receptor sample were used as samples. The VEGF receptor sample was prepared in the same manner as the VEGF sample, except that a VEGF receptor (R&D systems, Cat. No: 357-KD-050/CF) was used instead of the VEGF.
The analysis of binding properties by SPR was carried out in the following manner. First, biotinylated poly(dT) was bound to the sensor chip and each of the poly(dA)-added aptamers was then bound to the chip in the same manner as in Example 1. Subsequently, the 5 nmol/L VEGF sample was injected using an SB1T buffer at a flow rate of 50 μL/min for 240 seconds (first injection), followed by washing performed by flowing the SB1T buffer under the same conditions. Thereafter, the 5 nmol/L VEGF receptor sample was injected using an SB1T buffer at a flow rate of 50 μL/min for 240 seconds (second injection), followed by washing performed by flowing the SB1T buffer under the same conditions. With the time at which the first injection was started being 0 seconds, the signal intensity after the sample injection was measured. The SPR was carried out at 25° C. Also, analysis of binding properties by SPR was carried out in the same manner, except that the first and second injections were performed using the combinations shown in Table 1 below instead of the combination of the VEGF sample and the VEGF receptor sample.
FIGS. 8A to 8E are graphs respectively showing the binding properties of the aptamers 1 to 5 to the samples. […] The horizontal axis indicates the time (sec) elapsed after the start of the first injection, and the vertical axis indicates the signal intensity (RU).

The next data set concerns the target VEGF121 (UniProt P15692-9 P15692-9:27-147). Kind of data set: SPR; signal 0 or less, 5 nM, 25 C. The note with it: tags: PeproTech 100-20A; chain copies: 2. As for the experimental part: (§2) The analysis of the binding properties was carried out using a ProteOn XPR36 (BioRad) in accordance with its instructions for use.
as §1
(§3) The horizontal axis indicates the time (sec) elapsed after the start of the sample injection, and the vertical axis indicates the signal intensity (RU).

Data set [3] concerns the target BSA (bovine serum albumin) (Bos taurus, UniProt P02769 P02769:25-607). Kind of data set: SPR; signal 0 or less, 5 nM, 25 C. The note with it: tags: Sigma A7906. As to the method: as §2, §1, §3
Background: Surface plasmon resonance follows binding to a sensor surface in real time, without labels.

Data set [4] addresses T1, VEGF165. The experiment in a line: SPR; 37 C, no Ca, 1 nM VEGF165. Particulars: tags: PeproTech 100-20; chain copies: 2.

Chain of VEGF121 (P15692 other isoform, or with tags, fused parts or gaps): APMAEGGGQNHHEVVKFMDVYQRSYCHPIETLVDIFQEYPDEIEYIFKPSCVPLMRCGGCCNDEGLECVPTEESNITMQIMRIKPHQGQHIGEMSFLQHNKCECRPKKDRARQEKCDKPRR
Chain of VEGF receptor (KDR/VEGFR2) (P35968 20-764, one chain of several): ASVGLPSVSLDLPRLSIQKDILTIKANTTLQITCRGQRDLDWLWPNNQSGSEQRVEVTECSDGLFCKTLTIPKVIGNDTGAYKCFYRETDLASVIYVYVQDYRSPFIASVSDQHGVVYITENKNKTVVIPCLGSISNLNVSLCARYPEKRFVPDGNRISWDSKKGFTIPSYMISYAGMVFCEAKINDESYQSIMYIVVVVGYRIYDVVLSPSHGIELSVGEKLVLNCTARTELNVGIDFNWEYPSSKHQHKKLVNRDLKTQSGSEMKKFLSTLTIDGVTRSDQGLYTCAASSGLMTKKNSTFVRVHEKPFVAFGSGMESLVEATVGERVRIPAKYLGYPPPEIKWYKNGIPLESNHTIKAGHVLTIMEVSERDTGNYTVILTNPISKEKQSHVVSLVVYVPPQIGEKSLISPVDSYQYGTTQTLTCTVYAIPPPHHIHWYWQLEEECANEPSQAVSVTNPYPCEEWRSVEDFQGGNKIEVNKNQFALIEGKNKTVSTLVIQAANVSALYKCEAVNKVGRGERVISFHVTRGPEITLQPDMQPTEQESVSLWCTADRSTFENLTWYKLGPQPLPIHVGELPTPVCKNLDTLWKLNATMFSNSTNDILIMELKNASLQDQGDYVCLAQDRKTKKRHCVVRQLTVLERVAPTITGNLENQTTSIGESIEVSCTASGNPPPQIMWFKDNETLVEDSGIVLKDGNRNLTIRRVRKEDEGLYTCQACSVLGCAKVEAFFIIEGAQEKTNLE
Chain of BSA (bovine serum albumin) (P02769 25-607, one chain of several): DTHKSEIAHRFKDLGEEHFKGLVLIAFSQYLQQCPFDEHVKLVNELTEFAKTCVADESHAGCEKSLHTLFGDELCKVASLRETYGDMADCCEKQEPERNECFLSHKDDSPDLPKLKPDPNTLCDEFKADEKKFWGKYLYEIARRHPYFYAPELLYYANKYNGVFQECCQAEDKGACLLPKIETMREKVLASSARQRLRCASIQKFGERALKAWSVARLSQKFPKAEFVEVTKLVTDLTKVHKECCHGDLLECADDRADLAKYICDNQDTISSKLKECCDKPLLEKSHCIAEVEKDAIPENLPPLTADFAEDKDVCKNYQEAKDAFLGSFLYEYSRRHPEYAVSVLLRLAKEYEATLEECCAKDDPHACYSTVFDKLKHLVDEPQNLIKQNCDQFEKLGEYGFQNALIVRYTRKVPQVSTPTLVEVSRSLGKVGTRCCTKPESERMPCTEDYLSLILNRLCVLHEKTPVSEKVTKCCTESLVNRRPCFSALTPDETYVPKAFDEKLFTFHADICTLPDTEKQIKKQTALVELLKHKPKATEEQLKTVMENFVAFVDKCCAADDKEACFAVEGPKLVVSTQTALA
T1 sequence (P15692 other isoform, or with tags, fused parts or gaps): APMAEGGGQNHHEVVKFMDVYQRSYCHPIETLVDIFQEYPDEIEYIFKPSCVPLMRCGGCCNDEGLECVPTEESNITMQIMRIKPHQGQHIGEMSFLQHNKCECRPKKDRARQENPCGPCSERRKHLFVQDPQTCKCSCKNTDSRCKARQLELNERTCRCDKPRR

B1: Aptamer 8 VEGF_L29_1 with 3' poly(dA)20 (ssDNA)
DNA: CTTAGTTTAAAGTCACGTCTTAGTTTAAGAAAAAAAAAAAAAAAAAAAA
The Kd is a measure of binding affinity in units of concentration. Low values mean higher affinity, high ones lower affinity. B1 yielded a Kd with VEGF165 [1] of 0.0993 nM. This lies in the picomolar range.

B2: Aptamer 10 VEGF_L28_2 with 3' poly(dA)20 (ssDNA)
DNA: CTTAGTTTAAAGTCACGTCTTAGTTTAAAAAAAAAAAAAAAAAAAAAA
The molecule B2 had a Kd with VEGF165 [1] of 4170 nM.

B3: Aptamer 5 VEGF746CaP_R8m49 with 3' poly(dA)20 (ssDNA)
DNA: GGATTGCCCGATTCACCGTAAACGTTCTTACATTAGTTTAAAGTCACGTCTTAGTTTAATTAAGCATTCTGGAGCGGCATAACAAAAAAAAAAAAAAAAAAAA
B3: the binding result in data set [2] is “no binding”; with VEGF121, “no binding”; in data set [3], “no binding”; in the data set with VEGF165 [4], “binds”.

B4: Aptamer 2 VEGF746CaP_5s31 with 3' poly(dA)20 (ssDNA)
DNA: CCTTAGTTTAAAGTCACGTCTTAGTTTAAGGAAAAAAAAAAAAAAAAAAAA
Consider B4, for which the binding result is listed as “no binding” in data set [2], “no binding” with VEGF121, “no binding” in data set [3] and “binds” with VEGF165 [4].

B5: Aptamer 14 VEGF_L25_1 with 3' poly(dA)20 (ssDNA)
DNA: TAGTTTAAAGTCACGTCTTAGTTTAAAAAAAAAAAAAAAAAAAAA
As for B5, the Kd with VEGF165 [1] amounted to 800 nM.

B6: Aptamer 12 VEGF_L26_1 with 3' poly(dA)20 (ssDNA)
DNA: TAGTTTAAAGTCACGTCTTAGTTTAAAAAAAAAAAAAAAAAAAAAA
B6 had a Kd with VEGF165 [1] of 0.0545 nM.

B7: Aptamer 4 VEGF746CaP_5s62 with 3' poly(dA)20 (ssDNA)
DNA: TTCACCGTAAACAGTTCTGGTTCCTTAGTTTAAAGTCACGTCTTAGTTTAAGGCATTCTGGAAAAAAAAAAAAAAAAAAAAA
Take B7: the binding result in data set [2] is on record as “no binding”; with VEGF121, “no binding”; in data set [3], “no binding”; in the data set with VEGF165 [4] it was “binds”.

B8: Aptamer 13 VEGF_L26_2 with 3' poly(dA)20 (ssDNA)
DNA: TTAGTTTAAAGTCACGTCTTAGTTTAAAAAAAAAAAAAAAAAAAAA
In the case of B8, the Kd with VEGF165 [1] came to 3.49 nM.

B9: Aptamer 9 VEGF_L28_1 with 3' poly(dA)20 (ssDNA)
DNA: TTAGTTTAAAGTCACGTCTTAGTTTAAGAAAAAAAAAAAAAAAAAAAA
Regarding B9, the Kd in the data set with VEGF165 [1] worked out at 0.0149 nM.

B10: Aptamer 15 VEGF_L23_1 with 3' poly(dA)20 (ssDNA)
DNA: AGTTTAAAGTCACGTCTTAGTTTAAAAAAAAAAAAAAAAAAAA
B10: the affinity with VEGF165 [1], expressed as Kd, was 92.7 nM. Against the preceding molecule, the Kd is about 6200-fold higher.

B11: Aptamer 3 VEGF746CaP_5s49 with 3' poly(dA)20 (ssDNA)
DNA: CCGTAAACAGTTCTGGTTCCTTAGTTTAAAGTCACGTCTTAGTTTAAGGAAAAAAAAAAAAAAAAAAAA
As to B11, the binding result in data set [2] is on record as “no binding”; with VEGF121 it was “no binding”; in data set [3] it was “no binding”; in the data set with VEGF165 [4] it was “binds”.

B12: Aptamer 7 VEGF_L30_2 with 3' poly(dA)20 (ssDNA)
DNA: CCTTAGTTTAAAGTCACGTCTTAGTTTAAGAAAAAAAAAAAAAAAAAAAA
As to B12, the equilibrium dissociation constant (Kd) with VEGF165 [1] is less than 0.001 nM.

B13: Aptamer 11 VEGF_L27_1 with 3' poly(dA)20 (ssDNA)
DNA: TTAGTTTAAAGTCACGTCTTAGTTTAAAAAAAAAAAAAAAAAAAAAA
Take B13: in the data set with VEGF165 [1], the affinity, expressed as Kd, was 0.0276 nM. This counts as picomolar.

B14: Aptamer 6 VEGF_L30_1 with 3' poly(dA)20 (ssDNA)
DNA: CTTAGTTTAAAGTCACGTCTTAGTTTAAGGAAAAAAAAAAAAAAAAAAAA
Molecule B14 gave a Kd with VEGF165 [1] of less than 0.001 nM.

B15: Aptamer 1 VEGF746CaP_R8m1 with 3' poly(dA)20 (ssDNA)
DNA: GGATTGCCCGATTCACCGTAAACAGTTCTGGTTCCTTAGTTTAAAGTCACGTCTTAGTTTAAGGCATTCTGGAGCGGCATAACAAAAAAAAAAAAAAAAAAAA
Take B15: the binding result in data set [2] was “no binding”; with VEGF121 it was “no binding”; in data set [3], “no binding”; with VEGF165 [4], “binds”.
